Assay results: publication PMC4741518, “Adaptive Remodeling of the Bacterial Proteome by Specific Ribosomal Modification Regulates Pseudomonas Infection and Niche Colonisation” (PLoS Genetics, 2016)

Columns and labels:
RimA = biological target: T1, RimA (Pseudomonas fluorescens, UniProt A0ACD4XU64); experiment: phosphodiesterase assay, TLC of […]-cdG; format: biochemical; settings: labelled compound (100 μM cdG with 0.07 μM 32P-cdG); 10 mM MgCl2, pH 8.0, 30 °C; product pGpG
T1 construct: gene U0037_01330; full-length, His6-tagged (pETM11-rimA), E. coli BL21(DE3) pLysS, Ni-NTA purified
T1 sequence (A0ACD4XU64 entry or part of it): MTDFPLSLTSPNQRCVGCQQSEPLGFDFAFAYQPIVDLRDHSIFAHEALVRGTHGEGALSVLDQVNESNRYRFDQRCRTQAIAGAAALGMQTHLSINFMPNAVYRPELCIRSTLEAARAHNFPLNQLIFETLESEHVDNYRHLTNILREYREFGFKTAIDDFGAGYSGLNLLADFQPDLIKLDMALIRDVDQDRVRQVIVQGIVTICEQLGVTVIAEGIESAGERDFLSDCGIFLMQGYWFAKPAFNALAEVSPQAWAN

[1] = biological target: Ribosomal protein S6 modification protein RimK (P. fluorescens SBW25)
Sequence of Ribosomal protein S6 modification protein RimK (P. fluorescens SBW25) (C3KE61 whole entry): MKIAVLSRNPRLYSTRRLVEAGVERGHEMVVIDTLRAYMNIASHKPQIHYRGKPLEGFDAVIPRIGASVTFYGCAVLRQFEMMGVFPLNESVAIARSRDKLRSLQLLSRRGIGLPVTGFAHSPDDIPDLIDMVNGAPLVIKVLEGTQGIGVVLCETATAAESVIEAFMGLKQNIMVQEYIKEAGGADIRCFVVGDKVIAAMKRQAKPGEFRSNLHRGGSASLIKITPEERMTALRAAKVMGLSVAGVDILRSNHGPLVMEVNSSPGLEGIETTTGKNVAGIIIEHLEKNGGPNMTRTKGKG

## Nc1nc2c(ncn2[C@@H]2O[C@@H]3COP(=O)(O)O[C@H]4[C@@H](O)[C@H](n5cnc6c(=O)[nH]c(N)nc65)O[C@@H]4COP(=O)(O)O[C@H]3[C@H]2O)c(=O)[nH]1 [cdG]
RimA
  phosphodiesterase assay, TLC of 32P-cdG: RimA PDE activity was subsequently confirmed (Fig 4C)

## Conserved EAL domain protein RimA (enzyme)
[1]
  RimKPf ATPase activity (linked PK/LDH assay, with glutamate): Vmax on addition of purified RimA; 234.9 without RimA: 364 nmol/min/mg

## Putative uncharacterized protein RimB (natural protein)
[1]
  RimKPf ATPase activity (linked PK/LDH assay, with glutamate): Vmax on addition of purified RimB; 113.6 without RimB: 691 nmol/min/mg
